This data set concerns the target RNAP containing His-RpoA (wild type) (Pseudomonas aeruginosa PAO1) (UniProt O52760+Q51561+Q9HWC9+Q9HTM1). The data set is described as follows: EMSA. As to conditions: 10 mM Tris-HCl, 50 mM KCl, 1 mM DTT, 1% glycerin, 10 mM MgCl2, 1 ug/ul poly(dI-dC), pH 7.5, room temperature, 30 min; 30 ng probe, 0.2 ug protein. For orientation: In EMSA bound probe runs differently from free probe, usually more slowly.

Binding data for one sequence are collected here from PMC10566545.

Sequence of RNAP containing His-RpoA (wild type) (Pseudomonas aeruginosa PAO1) (O52760 whole entry, chain 1 of 4): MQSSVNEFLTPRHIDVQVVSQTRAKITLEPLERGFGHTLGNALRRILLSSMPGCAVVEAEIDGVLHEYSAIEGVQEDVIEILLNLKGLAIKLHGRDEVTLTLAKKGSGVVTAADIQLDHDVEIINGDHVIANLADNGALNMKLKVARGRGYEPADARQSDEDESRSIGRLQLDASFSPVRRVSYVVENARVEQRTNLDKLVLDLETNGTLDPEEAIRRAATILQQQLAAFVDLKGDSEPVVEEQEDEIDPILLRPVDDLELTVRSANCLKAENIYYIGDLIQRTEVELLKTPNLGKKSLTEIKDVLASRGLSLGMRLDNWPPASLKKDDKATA
Sequence of RNAP containing His-RpoA (wild type) (Pseudomonas aeruginosa PAO1) (Q51561 whole entry, chain 2 of 4): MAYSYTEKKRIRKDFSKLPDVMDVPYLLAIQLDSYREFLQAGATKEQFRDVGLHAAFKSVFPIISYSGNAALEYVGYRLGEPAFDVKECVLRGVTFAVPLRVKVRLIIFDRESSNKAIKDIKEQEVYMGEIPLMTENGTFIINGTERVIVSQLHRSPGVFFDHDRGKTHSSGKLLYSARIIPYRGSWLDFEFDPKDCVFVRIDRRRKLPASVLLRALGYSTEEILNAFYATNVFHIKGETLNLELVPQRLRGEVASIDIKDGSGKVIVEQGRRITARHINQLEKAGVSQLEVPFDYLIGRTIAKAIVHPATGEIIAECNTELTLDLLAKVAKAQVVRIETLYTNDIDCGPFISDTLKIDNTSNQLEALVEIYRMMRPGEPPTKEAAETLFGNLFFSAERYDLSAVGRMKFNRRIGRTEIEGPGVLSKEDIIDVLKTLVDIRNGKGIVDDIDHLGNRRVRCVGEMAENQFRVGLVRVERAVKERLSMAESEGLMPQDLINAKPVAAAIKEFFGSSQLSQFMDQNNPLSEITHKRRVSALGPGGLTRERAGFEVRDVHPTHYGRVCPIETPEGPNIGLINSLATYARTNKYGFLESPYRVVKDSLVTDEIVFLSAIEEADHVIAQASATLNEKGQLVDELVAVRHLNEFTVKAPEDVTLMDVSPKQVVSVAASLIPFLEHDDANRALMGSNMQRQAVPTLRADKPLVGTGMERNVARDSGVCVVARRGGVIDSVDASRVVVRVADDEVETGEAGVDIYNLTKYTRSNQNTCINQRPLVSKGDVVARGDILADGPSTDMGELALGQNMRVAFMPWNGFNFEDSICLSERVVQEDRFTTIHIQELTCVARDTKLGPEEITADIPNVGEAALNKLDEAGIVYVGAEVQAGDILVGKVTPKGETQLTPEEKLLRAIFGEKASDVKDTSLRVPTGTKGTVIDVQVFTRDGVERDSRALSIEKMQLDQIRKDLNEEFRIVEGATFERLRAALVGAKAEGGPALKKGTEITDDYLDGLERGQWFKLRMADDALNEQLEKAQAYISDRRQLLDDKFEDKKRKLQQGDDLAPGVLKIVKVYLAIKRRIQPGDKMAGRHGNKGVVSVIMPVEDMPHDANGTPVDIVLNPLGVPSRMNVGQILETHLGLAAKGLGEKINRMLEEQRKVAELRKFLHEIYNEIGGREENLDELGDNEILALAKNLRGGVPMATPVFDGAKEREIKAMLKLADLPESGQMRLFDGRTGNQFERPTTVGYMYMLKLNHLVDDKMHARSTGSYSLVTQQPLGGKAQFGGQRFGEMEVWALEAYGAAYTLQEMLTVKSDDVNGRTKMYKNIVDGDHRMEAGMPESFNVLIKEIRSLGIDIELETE
Sequence of RNAP containing His-RpoA (wild type) (Pseudomonas aeruginosa PAO1) (Q9HWC9 whole entry, chain 3 of 4): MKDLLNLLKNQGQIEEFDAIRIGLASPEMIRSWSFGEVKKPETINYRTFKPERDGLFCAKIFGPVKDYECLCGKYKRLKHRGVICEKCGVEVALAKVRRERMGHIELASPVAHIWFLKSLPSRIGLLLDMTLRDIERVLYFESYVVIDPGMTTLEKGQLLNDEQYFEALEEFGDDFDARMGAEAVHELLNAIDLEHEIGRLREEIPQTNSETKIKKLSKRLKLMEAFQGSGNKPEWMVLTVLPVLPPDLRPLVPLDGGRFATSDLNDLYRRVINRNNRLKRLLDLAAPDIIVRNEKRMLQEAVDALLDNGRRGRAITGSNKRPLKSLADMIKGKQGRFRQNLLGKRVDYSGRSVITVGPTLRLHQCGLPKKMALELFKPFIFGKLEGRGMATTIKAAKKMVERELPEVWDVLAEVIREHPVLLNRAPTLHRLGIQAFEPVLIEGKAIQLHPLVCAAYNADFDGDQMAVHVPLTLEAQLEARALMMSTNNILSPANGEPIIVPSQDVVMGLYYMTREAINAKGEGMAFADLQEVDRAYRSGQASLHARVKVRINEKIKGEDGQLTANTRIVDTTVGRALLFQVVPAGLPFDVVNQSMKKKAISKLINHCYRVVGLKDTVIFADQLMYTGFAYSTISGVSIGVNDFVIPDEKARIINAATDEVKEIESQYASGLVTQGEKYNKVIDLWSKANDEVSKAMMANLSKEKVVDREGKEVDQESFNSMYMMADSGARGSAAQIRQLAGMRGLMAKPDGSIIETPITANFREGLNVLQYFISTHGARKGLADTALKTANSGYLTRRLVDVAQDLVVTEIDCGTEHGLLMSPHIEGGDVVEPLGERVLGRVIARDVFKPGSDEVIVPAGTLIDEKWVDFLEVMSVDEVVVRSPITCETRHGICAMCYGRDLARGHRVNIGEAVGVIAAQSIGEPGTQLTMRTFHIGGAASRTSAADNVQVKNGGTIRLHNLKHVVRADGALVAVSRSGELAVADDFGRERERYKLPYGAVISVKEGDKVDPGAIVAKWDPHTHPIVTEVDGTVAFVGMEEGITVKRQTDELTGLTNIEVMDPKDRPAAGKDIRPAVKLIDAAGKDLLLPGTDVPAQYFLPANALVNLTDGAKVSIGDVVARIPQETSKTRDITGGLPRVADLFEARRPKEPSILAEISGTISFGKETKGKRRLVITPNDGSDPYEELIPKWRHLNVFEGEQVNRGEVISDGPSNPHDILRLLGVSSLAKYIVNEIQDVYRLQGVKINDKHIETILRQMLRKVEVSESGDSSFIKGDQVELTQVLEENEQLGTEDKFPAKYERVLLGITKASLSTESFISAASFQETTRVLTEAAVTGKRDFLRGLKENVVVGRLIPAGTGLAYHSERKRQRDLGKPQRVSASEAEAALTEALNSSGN
Sequence of RNAP containing His-RpoA (wild type) (Pseudomonas aeruginosa PAO1) (Q9HTM1 whole entry, chain 4 of 4): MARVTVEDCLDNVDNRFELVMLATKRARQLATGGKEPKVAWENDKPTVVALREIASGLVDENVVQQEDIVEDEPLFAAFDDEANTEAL

With “AGTCTCTGAGCCCTCCGGCAGCTACCCGCACGAGGCGTCGCAACGGGAAAATCGATCGCGCGCCGCGGGTGTGCGGCTTATTCCATCGAAAGCACTGTCCATAACCATCGACTGTTACAGAAAACGAAAAACCATGTATCACTGTTCGTGATAATCAAAATCTCGTCGTTCGATTAGTTCCCTGCCGGAGCAGCCCGCAGACTTCGCCAATCCCGAAAAACCGACTGGCGGAGTCAAGCATGGTTTTTT (double strand) [PmexE probe (mexEF-oprN promoter)]”, the binding result is “binds”.
